Measurements taken from PMC5727390, “Targeted inhibition of STAT/TET1 axis as a therapeutic strategy for acute myeloid leukemia”.

Molecular target: STAT3 (UniProt P40763 127-722)
Test: EMSA; no compound; Signosis EMSA Assay Kit, manufacturer's protocol with minor modifications; buffer, salt, pH and temperature not stated
Details: chain copies: 2; label: 5' biotin on both strands; blunt

Sequence of STAT3 (P40763 127-722): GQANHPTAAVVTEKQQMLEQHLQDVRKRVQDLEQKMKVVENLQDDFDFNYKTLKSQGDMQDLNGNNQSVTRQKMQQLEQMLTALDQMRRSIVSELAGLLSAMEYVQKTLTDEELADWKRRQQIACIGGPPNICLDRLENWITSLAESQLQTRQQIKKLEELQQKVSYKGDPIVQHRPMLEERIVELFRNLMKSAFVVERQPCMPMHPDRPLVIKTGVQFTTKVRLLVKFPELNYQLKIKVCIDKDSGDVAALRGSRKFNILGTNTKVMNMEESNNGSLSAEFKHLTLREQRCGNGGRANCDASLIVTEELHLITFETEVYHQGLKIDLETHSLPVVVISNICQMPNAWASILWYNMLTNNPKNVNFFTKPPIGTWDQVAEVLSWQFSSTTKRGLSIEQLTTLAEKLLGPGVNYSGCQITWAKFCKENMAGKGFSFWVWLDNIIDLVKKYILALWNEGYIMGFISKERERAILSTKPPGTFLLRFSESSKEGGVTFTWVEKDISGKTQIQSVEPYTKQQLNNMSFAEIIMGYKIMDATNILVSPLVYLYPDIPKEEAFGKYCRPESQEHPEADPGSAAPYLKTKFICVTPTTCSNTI

B1: TET1-CPG probe (dsDNA)
DNA 1: CCGGTAGGCGTCCTCCGCGACCCGC
DNA 2: GCGGGTCGCGGAGGACGCCTACCGG
binding result: binds
